Results as given in publication PMC7229837, “Molecular architecture of the DNA-binding sites of the P-loop ATPases MipZ and ParA from Caulobacter crescentus”.

Tests used:
[1] = biological target: T1, ParA WT (Caulobacter crescentus, UniProt B8GW31 1-267); assay: HDX-MS; 1 mM ATPgS; regions R1, R2, R4 protected; EMSA: 10 mM HEPES/NaOH pH 7.2, 150 mM NaCl, 10 mM MgCl2, 0.05% Tween 20, 0.46 mM ATPgS, room temp; BLI: 50 mM HEPES/NaOH pH 7.2, 50 mM NaCl, 5 mM MgCl2, 0.1 mM; details: protein: recombinant; tags: C-terminal His6; chain copies: 2; blunt
T1 sequence: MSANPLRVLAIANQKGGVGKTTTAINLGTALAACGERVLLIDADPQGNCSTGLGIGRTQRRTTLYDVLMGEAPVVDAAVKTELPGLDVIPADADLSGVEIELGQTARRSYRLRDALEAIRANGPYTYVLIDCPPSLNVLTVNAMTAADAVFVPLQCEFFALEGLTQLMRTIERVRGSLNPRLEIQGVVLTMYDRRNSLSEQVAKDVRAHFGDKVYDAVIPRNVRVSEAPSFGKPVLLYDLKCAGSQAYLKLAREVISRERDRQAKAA

[2] = biological target: T2, MipZ D42A (Caulobacter crescentus, UniProt Q9A6C9 1-278, D42A); assay: HDX-MS; 1 mM ATPgS; regions R1, R3, R4 protected; EMSA: 10 mM HEPES/NaOH pH 7.2, 150 mM NaCl, 10 mM MgCl2, 0.05% Tween 20, 0.46 mM ATPgS, room temp; BLI: 50 mM HEPES/NaOH pH 7.2, 50 mM NaCl, 5 mM MgCl2, 0.1 mM; details: protein: recombinant; tags: C-terminal His6 (pET21a); chain copies: 2; blunt
T2 sequence: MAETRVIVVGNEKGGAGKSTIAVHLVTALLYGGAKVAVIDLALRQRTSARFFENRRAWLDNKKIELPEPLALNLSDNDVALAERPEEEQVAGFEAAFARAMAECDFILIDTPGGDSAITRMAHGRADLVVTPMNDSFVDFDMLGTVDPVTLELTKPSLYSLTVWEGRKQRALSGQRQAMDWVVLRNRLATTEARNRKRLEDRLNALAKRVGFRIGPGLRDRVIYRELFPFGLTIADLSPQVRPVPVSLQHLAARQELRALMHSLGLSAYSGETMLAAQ

B1: ran14-up/ran14-lo 14 bp (dsDNA)
DNA 1: GCCGCCGCCGCCGC
DNA 2: GCGGCGGCGGCGGC
B1: binds [1]; binds [2].
